# Results: IntAct's records for PubMed 31663853
# B1: Protein phosphatase 1H (Homo sapiens), Q9ULR3 (parent)
# chain: MLTRVKSAVANFMGGIMAGSSGSEHGGGSCGGSDLPLRFPYGRPEFLGLSQDEVECSADHIARPILILKETRRLPWATGYAEVINAGKSTHNEDQASCEVLTVKKKAGAVTSTPNRNSSKRRSSLPNGEGLQLKENSESEGVSCHYWSLFDGHAGSGAAVVASRLLQHHITEQLQDIVDILKNSAVLPPTCLGEEPENTPANSRTLTRAASLRGGVGAPGSPSTPPTRFFTEKKIPHECLVIGALESAFKEMDLQIERERSSYNISGGCTALIVICLLGKLYVANAGDSRAIIIRNGEIIPMSSEFTPETERQRLQYLAFMQPHLLGNEFTHLEFPRRVQRKELGKKMLYRDFNMTGWAYKTIEDEDLKFPLIYGEGKKARVMATIGVTRGLGDHDLKVHDSNIYIKPFLSSAPEVRIYDLSKYDHGSDDVLILATDGLWDVLSNEEVAEAITQFLPNCDPDDPHRYTLAAQDLVMRARGVLKDRGWRISNDRLGSGDDISVYVIPLIHGNKLS
# Variants of: B1
# Details: with rab10_human RAB10, P61026
# rab10_human RAB10, P61026, sequence (P61026 whole entry): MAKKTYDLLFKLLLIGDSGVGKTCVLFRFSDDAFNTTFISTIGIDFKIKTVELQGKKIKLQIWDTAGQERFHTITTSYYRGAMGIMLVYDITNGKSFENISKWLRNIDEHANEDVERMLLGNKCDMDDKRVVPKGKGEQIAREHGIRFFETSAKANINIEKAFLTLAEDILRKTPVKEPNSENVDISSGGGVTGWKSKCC
row,effect of a mutation on the interaction,Variant
1,causing an interaction,MLTRVKSAVANFMGGIMAGSSGSEHGGGSCGGSDLPLRFPYGRPEFLGLSQDEVECSADHIARPILILKETRRLPWATGYAEVINAGKSTHNEDQASCEVLTVKKKAGAVTSTPNRNSSKRRSSLPNGEGLQLKENSESEGVSCHYWSLFDGHAGSGAAVVASRLLQHHITEQLQDIVDILKNSAVLPPTCLGEEPENTPANSRTLTRAASLRGGVGAPGSPSTPPTRFFTEKKIPHECLVIGALESAFKEMDLQIERERSSYNISGGCTALIVICLLGKLYVANAGESRAIIIRNGEIIPMSSEFTPETERQRLQYLAFMQPHLLGNEFTHLEFPRRVQRKELGKKMLYRDFNMTGWAYKTIEDEDLKFPLIYGEGKKARVMATIGVTRGLGDHDLKVHDSNIYIKPFLSSAPEVRIYDLSKYDHGSDDVLILATDGLWDVLSNEEVAEAITQFLPNCDPDDPHRYTLAAQDLVMRARGVLKDRGWRISNDRLGSGDDISVYVIPLIHGNKLS [D288E]
2,causing an interaction,MLTRVKSAVANFMGGIMAGSSGSEHGGGSCGGSDLPLRFPYGRPEFLGLSQDEVECSADHIARPILILKETRRLPWATGYAEVINAGKSTHNEDQASCEVLTVKKKAGAVTSTPNRNSSKRRSSLPNGEGLQLKENSESEGVSCHYWSLFDGHAGSGAAVVASRLLQHHITEQLQDIVDILKNSAVLPPTCLGEEPENTPANSRTLTRAASLRGGVGAPGSPSTPPTRFFTEKKIPHECLVIGALESAFKEMDLQIERERSSYNISGGCTALIVICLLGKLYVANAGASRAIIIRNGEIIPMSSEFTPETERQRLQYLAFMQPHLLGNEFTHLEFPRRVQRKELGKKMLYRDFNMTGWAYKTIEDEDLKFPLIYGEGKKARVMATIGVTRGLGDHDLKVHDSNIYIKPFLSSAPEVRIYDLSKYDHGSDDVLILATDGLWDVLSNEEVAEAITQFLPNCDPDDPHRYTLAAQDLVMRARGVLKDRGWRISNDRLGSGDDISVYVIPLIHGNKLS [D288A]
